Series [1] deals with T1, 4-chlorobenzoate:CoA ligase (CBL; CBAL) (Alcaligenes sp. AL3007, UniProt Q8GN86).
T1 sequence (Q8GN86 1-504): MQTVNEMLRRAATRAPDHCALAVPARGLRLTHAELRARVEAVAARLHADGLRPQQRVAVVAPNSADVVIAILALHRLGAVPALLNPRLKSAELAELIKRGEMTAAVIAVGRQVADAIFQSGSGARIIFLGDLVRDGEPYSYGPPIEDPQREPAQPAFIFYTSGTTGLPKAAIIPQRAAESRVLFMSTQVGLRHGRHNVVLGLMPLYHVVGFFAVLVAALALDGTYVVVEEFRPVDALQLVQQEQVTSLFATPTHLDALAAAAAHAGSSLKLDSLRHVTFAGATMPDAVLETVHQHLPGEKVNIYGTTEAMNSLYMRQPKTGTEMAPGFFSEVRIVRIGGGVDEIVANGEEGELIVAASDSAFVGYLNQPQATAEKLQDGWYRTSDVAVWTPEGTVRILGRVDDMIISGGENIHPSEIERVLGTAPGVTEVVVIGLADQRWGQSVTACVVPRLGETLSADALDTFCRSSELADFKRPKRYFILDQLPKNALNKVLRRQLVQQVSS
Kind of series: coupled AMP-forming assay, inhibition kinetics. Type of series: biochemical.

Series [2] addresses T1, 4-chlorobenzoate:CoA ligase (CBL; CBAL). Briefly: direct spectrophotometric assay at […] nm, inhibition kinetics. Type of series: biochemical.
Substrate in series [3]: Cc1ccc(C(=O)O)cc1
Kind of series: purified protein. The settings on record: 3.5 mM ATP, CoA varied, 15 mM MgCl2, pH 7.5, 25 °C.

Substrate in series [4]: CC(C)(COP(=O)(O)OP(=O)(O)OC[C@H]1O[C@@H](n2cnc3c(N)ncnc32)[C@H](O)[C@@H]1OP(=O)(O)O)[C@@H](O)C(=O)NCCC(=O)NCCS
Briefly: coupled AMP-forming assay, initial velocity. Conditions: 3.5 mM ATP, 4-methylbenzoate varied, 15 mM MgCl2, pH 7.5, 25 °C. Type of series: biochemical, Alcaligenes sp. AL3007.

Substrate in series [5]: Nc1ncnc2c1ncn2[C@@H]1O[C@H](COP(=O)(O)OP(=O)(O)OP(=O)(O)O)[C@@H](O)[C@H]1O
Briefly: coupled AMP-forming assay, initial velocity. Type of series: biochemical, Alcaligenes sp. AL3007. Conditions: 200 μM 4-methylbenzoate, CoA varied, 15 mM MgCl2, pH 7.5, 25 °C.

Experimental findings from article PMC3694354 (Biochemistry, 2008) are described below.

What is called Ki is the equilibrium dissociation constant of an inhibitor or competing ligand from its target. In general, Km refers to the concentration of substrate that gives half-maximal velocity. The kcat is the maximal rate divided by the concentration of active sites.

`O=P(O)(O)OP(=O)(O)O` [PPi]: in series [1], the affinity, expressed as Ki, was 95 ± 10 µM.
In series [1], `CC(C)(COP(=O)(O)OP(=O)(O)OC[C@H]1O[C@@H](n2cnc3c(N)ncnc32)[C@H](O)[C@@H]1OP(=O)(O)O)[C@@H](O)C(=O)NCCC(=O)NCCSCC(=O)c1ccc(Cl)cc1` [4-CP-CoA, 4-chlorophenacyl-CoA] gave an inhibitory constant (Ki) of 21 ± 8 µM.
`Nc1ncnc2c1ncn2[C@@H]1O[C@H](COP(=O)(O)O)[C@@H](O)[C@H]1O` [AMP] yielded an inhibition constant Ki in series [2] of 120 ± 20 µM.
Take `CC(C)(COP(=O)(O)OP(=O)(O)OC[C@H]1O[C@@H](n2cnc3c(N)ncnc32)[C@H](O)[C@@H]1OP(=O)(O)O)[C@@H](O)C(=O)NCCC(=O)NCCSCc1ccc(Cl)cc1` [4-chlorobenzyl-CoA]: in series [1], the inhibition constant (Ki) worked out at 45 ± 10 µM.

B1: 4-chlorobenzoate:CoA ligase (CBL; CBAL) (Alcaligenes sp. AL3007) (protein)
chain: T1 sequence (Q8GN86 1-504)
Take B1: the Michaelis constant (Km) in series [3] stood at 30 ± 5 µM; in series [4] it was 160 ± 20 µM; in series [5], 180 ± 15 µM. The kcat in series [3] was 8.0 ± 0.6 s⁻¹; in series [4], 8.0 ± 0.6 s⁻¹; in series [5], 8.2 ± 0.3 s⁻¹.
